In the assay the target is Human PLA2G1B (phospholipase A2 group 1B), active form (human) (UniProt P04054).

A value given as a limit tells only on which side of the number the result lay.

For “Recombinant HIV-1 gp41 MN protein (gp41 MN (565-771Delta642-725)) (from UniProt P05877 565-771) (domain or fragment)”, the PLA2G1B enzymatic activity ([3H]AA release from labeled human CD4 T cells), PLA2G1B 63 nM, gp41 0.68 nM-340 nM was > 20 fold.

Values taken from PMC8981723.
